Experiment [1] has as its target Rab5a(1–212)-Q79L-C19S-C63S (human) (UniProt P20339).
Experiment [2] addresses Rab1a(1–204)-Q70L-C26S-C126S (human) (UniProt P62820).

Chain of Rab1a(1–204)-Q70L-C26S-C126S (human) (P62820 1-204 C26S/Q70L/C126S): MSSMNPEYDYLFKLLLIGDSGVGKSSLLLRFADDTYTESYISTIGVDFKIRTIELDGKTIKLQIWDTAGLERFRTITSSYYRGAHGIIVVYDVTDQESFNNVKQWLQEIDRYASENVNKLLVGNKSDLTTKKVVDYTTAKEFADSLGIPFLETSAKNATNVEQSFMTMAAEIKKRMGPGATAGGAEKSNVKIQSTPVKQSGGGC
Chain of human VPS34 complex I (VPS34/VPS15/Beclin 1/ATG14L) (Q8NEB9 whole entry): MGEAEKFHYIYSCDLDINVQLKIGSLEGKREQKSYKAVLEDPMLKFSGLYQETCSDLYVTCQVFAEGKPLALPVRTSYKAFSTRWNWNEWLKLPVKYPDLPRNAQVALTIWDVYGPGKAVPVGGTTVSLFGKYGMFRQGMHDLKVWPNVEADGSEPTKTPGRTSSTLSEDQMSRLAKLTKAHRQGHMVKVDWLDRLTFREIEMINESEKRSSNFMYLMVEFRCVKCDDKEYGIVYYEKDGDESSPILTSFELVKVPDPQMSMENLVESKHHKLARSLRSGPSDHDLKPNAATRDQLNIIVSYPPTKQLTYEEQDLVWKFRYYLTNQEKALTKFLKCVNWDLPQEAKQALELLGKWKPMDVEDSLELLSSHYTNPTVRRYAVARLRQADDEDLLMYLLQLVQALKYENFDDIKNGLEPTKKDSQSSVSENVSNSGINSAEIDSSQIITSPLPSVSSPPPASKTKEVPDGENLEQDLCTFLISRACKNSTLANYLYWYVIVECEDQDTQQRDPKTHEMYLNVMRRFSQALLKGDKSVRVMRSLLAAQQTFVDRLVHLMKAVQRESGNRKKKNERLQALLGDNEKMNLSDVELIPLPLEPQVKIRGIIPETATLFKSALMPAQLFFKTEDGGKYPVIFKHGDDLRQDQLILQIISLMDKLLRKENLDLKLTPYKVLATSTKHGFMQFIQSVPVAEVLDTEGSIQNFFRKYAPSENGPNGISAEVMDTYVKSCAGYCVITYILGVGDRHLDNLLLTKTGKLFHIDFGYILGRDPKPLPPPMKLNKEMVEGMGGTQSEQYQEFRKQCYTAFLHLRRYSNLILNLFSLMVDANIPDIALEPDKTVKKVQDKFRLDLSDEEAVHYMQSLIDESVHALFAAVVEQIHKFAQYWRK
Chain of human VPS34 complex I (VPS34/VPS15/Beclin 1/ATG14L) (Q99570 whole entry): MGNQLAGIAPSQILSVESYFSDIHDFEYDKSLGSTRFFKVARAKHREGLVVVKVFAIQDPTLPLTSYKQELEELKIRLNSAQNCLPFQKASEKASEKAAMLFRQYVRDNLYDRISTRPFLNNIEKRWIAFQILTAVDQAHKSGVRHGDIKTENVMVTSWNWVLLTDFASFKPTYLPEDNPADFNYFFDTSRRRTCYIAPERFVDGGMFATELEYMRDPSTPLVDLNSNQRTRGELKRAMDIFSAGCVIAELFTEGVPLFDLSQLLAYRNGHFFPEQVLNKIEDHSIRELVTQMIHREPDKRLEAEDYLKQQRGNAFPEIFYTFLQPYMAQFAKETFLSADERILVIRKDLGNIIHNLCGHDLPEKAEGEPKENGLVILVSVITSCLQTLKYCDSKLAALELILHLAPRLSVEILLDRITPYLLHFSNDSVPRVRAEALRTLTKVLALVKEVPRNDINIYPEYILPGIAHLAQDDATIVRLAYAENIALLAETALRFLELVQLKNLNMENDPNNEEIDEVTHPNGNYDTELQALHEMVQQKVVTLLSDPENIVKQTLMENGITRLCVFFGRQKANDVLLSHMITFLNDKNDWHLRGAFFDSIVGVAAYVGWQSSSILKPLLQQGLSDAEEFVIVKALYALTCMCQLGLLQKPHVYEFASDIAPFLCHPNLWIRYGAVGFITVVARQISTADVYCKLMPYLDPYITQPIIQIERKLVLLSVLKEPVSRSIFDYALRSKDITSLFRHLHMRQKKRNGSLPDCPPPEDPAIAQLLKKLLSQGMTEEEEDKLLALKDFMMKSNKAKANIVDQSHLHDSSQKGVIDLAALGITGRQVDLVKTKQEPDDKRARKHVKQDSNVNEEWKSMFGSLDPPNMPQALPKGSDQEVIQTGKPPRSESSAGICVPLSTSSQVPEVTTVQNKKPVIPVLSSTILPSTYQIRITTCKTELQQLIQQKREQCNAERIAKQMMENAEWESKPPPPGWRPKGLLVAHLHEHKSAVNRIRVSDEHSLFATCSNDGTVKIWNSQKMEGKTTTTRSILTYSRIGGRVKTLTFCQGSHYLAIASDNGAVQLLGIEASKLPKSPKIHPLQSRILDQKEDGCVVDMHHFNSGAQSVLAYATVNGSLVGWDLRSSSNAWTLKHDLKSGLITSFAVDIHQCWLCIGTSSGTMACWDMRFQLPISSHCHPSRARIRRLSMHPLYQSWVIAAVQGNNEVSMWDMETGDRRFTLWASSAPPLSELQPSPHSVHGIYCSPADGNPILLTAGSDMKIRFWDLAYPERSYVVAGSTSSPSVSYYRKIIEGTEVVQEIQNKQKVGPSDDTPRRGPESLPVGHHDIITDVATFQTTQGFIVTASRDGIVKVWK
Chain of human VPS34 complex I (VPS34/VPS15/Beclin 1/ATG14L) (Q14457 whole entry): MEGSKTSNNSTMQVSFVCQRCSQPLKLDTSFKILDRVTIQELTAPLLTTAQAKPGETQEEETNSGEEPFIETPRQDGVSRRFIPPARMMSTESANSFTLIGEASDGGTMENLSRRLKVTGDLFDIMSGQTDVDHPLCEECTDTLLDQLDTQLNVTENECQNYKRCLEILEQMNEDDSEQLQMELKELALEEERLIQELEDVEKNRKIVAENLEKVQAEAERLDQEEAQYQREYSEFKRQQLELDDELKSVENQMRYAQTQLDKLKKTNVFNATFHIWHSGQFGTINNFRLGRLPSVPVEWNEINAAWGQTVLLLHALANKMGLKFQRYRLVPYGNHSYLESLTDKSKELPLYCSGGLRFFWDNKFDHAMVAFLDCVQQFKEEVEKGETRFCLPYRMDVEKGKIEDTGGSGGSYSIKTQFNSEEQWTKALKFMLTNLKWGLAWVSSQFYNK
Chain of human VPS34 complex I (VPS34/VPS15/Beclin 1/ATG14L) (Q6ZNE5 whole entry): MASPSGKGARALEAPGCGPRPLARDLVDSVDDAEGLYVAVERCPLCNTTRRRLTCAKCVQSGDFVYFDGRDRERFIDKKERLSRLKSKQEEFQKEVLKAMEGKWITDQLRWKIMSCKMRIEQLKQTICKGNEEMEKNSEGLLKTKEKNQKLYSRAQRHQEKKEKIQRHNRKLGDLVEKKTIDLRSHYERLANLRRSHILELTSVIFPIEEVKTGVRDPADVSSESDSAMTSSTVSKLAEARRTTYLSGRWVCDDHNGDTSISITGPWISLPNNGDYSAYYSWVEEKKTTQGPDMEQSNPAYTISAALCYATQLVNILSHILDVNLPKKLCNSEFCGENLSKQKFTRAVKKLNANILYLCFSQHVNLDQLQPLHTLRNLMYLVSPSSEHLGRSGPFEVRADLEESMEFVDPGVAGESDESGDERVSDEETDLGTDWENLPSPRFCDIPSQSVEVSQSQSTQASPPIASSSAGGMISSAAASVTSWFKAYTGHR
Chain of Rab5a(1–212)-Q79L-C19S-C63S (human) (P20339 1-212 C19S/C63S/Q79L): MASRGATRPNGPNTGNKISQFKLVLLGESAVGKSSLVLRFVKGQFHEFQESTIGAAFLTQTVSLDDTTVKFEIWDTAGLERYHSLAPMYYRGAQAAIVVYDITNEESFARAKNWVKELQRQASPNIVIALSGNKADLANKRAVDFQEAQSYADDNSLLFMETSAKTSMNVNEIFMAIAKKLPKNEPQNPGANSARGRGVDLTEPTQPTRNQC

Consider “complex II REIE > AAAA (VPS34 199-REIE-202 to alanine/VPS15/Beclin 1/UVRAG) (from UniProt Q8NEB9 1-887; Q99570 1-1358; Q14457 1-450; Q9P2Y5 1-699)”, for which, in experiment [1], the GUV-based lipid kinase activity, activation of complex II REIE > AAAA by Rab5a–GTP against wild-type complex II is 4 fold. With “human VPS34 complex I (VPS34/VPS15/Beclin 1/ATG14L) (from UniProt Q8NEB9 1-887; Q99570 1-1358; Q14457 1-450; Q6ZNE5 1-492)”, in experiment [2], the GUV-based lipid kinase activity of complex I, fold activation by Rab1a–GDP on the GUVs is 3 fold and the GUV-based lipid kinase activity of complex I, fold activation by Rab1a–GTP on the GUVs worked out at 11 fold.

(Values after article PMC7946940.)
